We go through 1 molecule from publication PMC3923656 (Journal of cellular biochemistry, 2009).

The experiment addresses T1, GST-Hoxa1-993 (mouse, UniProt P09022 1-331).
T1 sequence (looked up): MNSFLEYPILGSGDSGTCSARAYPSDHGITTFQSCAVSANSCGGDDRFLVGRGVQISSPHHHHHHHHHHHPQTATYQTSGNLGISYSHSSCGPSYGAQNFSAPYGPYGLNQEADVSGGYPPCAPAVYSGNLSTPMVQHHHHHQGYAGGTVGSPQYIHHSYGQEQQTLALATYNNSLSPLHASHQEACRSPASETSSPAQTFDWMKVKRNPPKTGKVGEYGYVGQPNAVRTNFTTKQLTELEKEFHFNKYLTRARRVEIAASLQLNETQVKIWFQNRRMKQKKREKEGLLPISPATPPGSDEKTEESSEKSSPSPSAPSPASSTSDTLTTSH
In words: pull-down.

B1: Hoxa1-399, [35S]-labeled, in vitro translated (natural protein, mouse, UniProt P09022-2 1-133, looked up)
chain: MNSFLEYPILGSGDSGTCSARAYPSDHGITTFQSCAVSANSCGGDDRFLVGRGVQISSPHHHHHHHHHHHPQTATYQTSGNLGISYSHSSCGPSYGAQNFSAPYGPYGLNQEADPPRSLSFPCFRDVFSSADL
modifications: [35S]-cysteine radiolabel
Consider B1, for which the “fold bound over GST alone” value is 8 fold.
